Measurements published in article PMC2814163 (Biochemistry, 2010).

Biological target: soluble form of the cation-independent mannose 6-phosphate receptor isolated from fetal bovine serum (bovine, UniProt P08169 45-2313)
Experiment: SPR

B1: human β-glucuronidase (enzyme, UniProt P08236 23-651, looked up)
chain: LQGGMLYPQESPSRECKELDGLWSFRADFSDNRRRGFEEQWYRRPLWESGPTVDMPVPSSFNDISQDWRLRHFVGWVWYEREVILPERWTQDLRTRVVLRIGSAHSYAIVWVNGVDTLEHEGGYLPFEADISNLVQVGPLPSRLRITIAINNTLTPTTLPPGTIQYLTDTSKYPKGYFVQNTYFDFFNYAGLQRSVLLYTTPTTYIDDITVTTSVEQDSGLVNYQISVKGSNLFKLEVRLLDAENKVVANGTGTQGQLKVPGVSLWWPYLMHERPAYLYSLEVQLTAQTSLGPVSDFYTLPVGIRTVAVTKSQFLINGKPFYFHGVNKHEDADIRGKGFDWPLLVKDFNLLRWLGANAFRTSHYPYAEEVMQMCDRYGIVVIDECPGVGLALPQFFNNVSLHHHMQVMEEVVRRDKNHPAVVMWSVANEPASHLESAGYYLKMVIAHTKSLDPSRPVTFVSNSNYAADKGAPYVDVICLNSYYSWYHDYGHLELIQLQLATQFENWYKKYQKPIIQSEYGAETIAGFHQDPPLMFTEEYQKSLLEQYHLGLDQKRRKYVVGELIWNFADFMTEQSPTRVLGNKKGIFTRQRQPKSAAFLLRERYWKIANETRYPHSVAKSQCLENSLFT
modifications: mannose 6-phosphate on its glycans (Man-6-P-containing lysosomal enzyme; nonphosphorylated enzyme removed)
- Kd: 0.022 ± 0.003 µM
